The results in this text go back to patent publication US8492329B2, “Bioactive peptides and methods of using same” (Compugen Ltd., priority 2007, dated 2013).

For experiment [1], the target named is T1, LGR7 (RXFP1) (Homo sapiens, UniProt Q9HBX9).
T1 sequence (Q9HBX9 1-757): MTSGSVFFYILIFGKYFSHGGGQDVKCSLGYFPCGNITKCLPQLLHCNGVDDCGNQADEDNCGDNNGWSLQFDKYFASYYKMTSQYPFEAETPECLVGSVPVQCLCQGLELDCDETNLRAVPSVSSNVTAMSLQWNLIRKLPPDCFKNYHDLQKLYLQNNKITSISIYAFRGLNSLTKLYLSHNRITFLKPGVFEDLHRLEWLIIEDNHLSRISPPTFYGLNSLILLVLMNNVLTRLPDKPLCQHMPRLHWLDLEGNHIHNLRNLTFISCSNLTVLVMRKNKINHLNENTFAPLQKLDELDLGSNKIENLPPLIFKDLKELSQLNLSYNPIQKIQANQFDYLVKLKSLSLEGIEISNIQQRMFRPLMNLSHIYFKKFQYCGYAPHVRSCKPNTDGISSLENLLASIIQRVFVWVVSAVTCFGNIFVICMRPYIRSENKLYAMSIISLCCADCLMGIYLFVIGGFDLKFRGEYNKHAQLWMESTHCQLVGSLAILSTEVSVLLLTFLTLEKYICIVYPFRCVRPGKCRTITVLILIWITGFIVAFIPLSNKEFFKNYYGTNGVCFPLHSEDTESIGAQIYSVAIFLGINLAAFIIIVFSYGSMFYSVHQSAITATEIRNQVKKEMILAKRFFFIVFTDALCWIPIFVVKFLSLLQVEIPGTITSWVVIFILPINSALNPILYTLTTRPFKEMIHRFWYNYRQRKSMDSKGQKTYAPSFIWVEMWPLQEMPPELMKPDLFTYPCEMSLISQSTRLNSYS
Description: pCRE-β-gal reporter assay in Forskolin-treated CHO-K1 cells transiently transfected with LGR7. The format is cell-based. Also on record: expressed in transfected cells; host or cells: CHO-K1 (transient). The following applies: 5 uM Forskolin, FIG. 7A-B. Here is the method:
The ability of P74C13V (P74) (SEQ ID NO: 10) and P59C13V (P59) and P59C13V-Amide (P59-Amide) (SEQ ID NO: 6 and 5 respectively) to activate LGR7 (RXFP1) and LGR8 (RXFP2) was further tested by testing the ability of these peptides to influence cAMP activity induced by 5 μM Forskolin in CHO-K1 cells transiently transfected with LGR7/pCRE-β-gal or LGR8/pCRE-β-gal as compared to H2 relaxin and INSL3 respectively.
LGR7 transfected CHO-K1 cells were treated with 5 uM of Forskolin to stimulate cAMP. The cells were then challenged with increasing doses of H2 Relaxin (as positive control), P74C13V (P74) (SEQ ID NO: 10), P59C13V with (P59-Amide) and without (P59) amide and P59S-Amide (P59S) (SEQ ID NO: 5, 6 and 1, respectively). […] The results are presented as a percentage of Forskolin activity at increasing concentrations of each peptide (represented in log [M]). The baseline for the experiment was the activity of Forskolin alone (100%). Each point represents three unrelated repeats for each experiment together with their standard error bars.
A general note: In a reporter assay the amount or activity of a reporter protein is the signal.

Experiment [2] has as its target T1, LGR7 (RXFP1). Description: Competition with Europium labelled H2 Relaxin binding to HEK-293T cells expressing LGR7. Also on record: expressed in transfected cells. The following applies: LGR7 HEK-293T; 0.01 nM-10 μM; FIG. 9. How it is done:
(§1) The ability of Peptides P74C13V (SEQ ID NO: 10) and P59C13V (SEQ ID NO: 6) to compete with the binding of known ligands to LGR7 or LGR8 was tested by testing the ability of P74C13V (SEQ ID NO: 10) and P59C13V (SEQ ID NO: 6) to compete with the binding of Europium labelled H2 Relaxin or INSL3 (manufactured by the H. Florey institute) to stable HEK-293T cell lines expressing LGR7 or LGR8 respectively.
(§2) HEK-293T cell lines stabelly expressing LGR7 (RXFP1) were treated with Europium labelled H2 Relaxin (manufactured by the H. Florey institute) The cells were then treated with decimal increasing concentrations (0.01 nM, 0.1 nM, 1 nM, 10 nM, 100 nM, 1 μM, 10 μM) of un-labeled H2 Relaxin (as a positive control) and the tested peptides P59C13V (P59) (SEQ ID NO: 6), P59C13V-Amide (P59-Amide) (SEQ ID NO: 5), P59-S-Amide (P59S) (SEQ ID NO: 1) and P74C13V (P74) (SEQ ID NO: 10). The binding results are shown as a percentage of specific binding of the radioactive test H2 Relaxin (where 100% is the baseline radiation level).

Another experiment concerns the target LGR8 (RXFP2) (Homo sapiens, UniProt Q8WXD0). In words: Competition with Europium labelled INSL3 binding to HEK-293T cells expressing LGR8. Also on record: expressed in transfected cells. The following applies: LGR8 HEK-293T, FIG. 10; for effect on binding of Europium-INSL3: 0.01 nM-10 μM. How it is done: as §1
as §2, with “lines” for “lines stabelly”, “LGR8 (RXFP2)” for “LGR7 (RXFP1)”, “labeled INSL3” for “labelled H2 Relaxin”, “institute).” for “institute)”, “INSL3” for “H2 Relaxin”, “level). […] This means that the binding affinity of the Eur-INSL3 was increased by binding/activity of the P59C13V (P59) (SEQ ID NO: 6) peptide on the LGR8 receptor.” for “level).”

No end group written: not given here.

Sequence of LGR8 (RXFP2) (Q8WXD0 whole entry): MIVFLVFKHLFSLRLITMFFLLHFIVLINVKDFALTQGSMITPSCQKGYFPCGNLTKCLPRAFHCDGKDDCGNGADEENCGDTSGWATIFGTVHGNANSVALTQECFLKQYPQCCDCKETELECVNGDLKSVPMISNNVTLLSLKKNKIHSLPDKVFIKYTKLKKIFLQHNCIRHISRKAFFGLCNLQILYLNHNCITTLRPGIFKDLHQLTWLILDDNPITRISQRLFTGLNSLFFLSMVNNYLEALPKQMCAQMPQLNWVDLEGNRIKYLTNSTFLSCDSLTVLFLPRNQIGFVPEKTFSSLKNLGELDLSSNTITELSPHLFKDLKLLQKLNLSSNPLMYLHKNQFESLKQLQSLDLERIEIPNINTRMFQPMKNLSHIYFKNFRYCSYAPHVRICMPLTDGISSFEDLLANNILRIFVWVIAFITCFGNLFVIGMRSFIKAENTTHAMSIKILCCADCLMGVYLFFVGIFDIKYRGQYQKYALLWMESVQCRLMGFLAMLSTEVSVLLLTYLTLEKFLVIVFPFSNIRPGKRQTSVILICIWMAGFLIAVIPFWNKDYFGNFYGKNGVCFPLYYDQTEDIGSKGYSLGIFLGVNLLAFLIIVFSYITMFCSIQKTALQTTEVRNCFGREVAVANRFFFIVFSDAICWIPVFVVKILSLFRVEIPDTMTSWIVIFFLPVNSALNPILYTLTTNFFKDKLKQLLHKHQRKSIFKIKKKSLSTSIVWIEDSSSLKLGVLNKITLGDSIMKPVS

“GQKGQVGPPGAAVRRAYAAFSV [Peptide P59C13V]”: the “CRE activation pattern relative to Forskolin” value with LGR7 (RXFP1) [1] was “dual activation pattern effect”. Further, the “competition for binding of Europium-H2 Relaxin” value (“competition for binding” below) with LGR7 (RXFP1) [2] is given as “no competition”. Also, the “effect on binding of Europium-INSL3” value with LGR8 (RXFP2) is “positive cooperative or allosteric effect”. Further, the “specific binding of Europium-INSL3” value with LGR8 (RXFP2) (at 1 nM and higher concentrations, 100% is baseline) is recorded as around 125%.
For the substance “GQKGQVGPPGAAVRRAYAAFSVGRRAYAAFSV-OH [Peptide P74C13V]”, at LGR7 (RXFP1) [1], the “CRE activation pattern relative to Forskolin” value was “bell-shaped activation pattern”. Also, the “competition for binding” value on LGR7 (RXFP1) [2] is “no competition”. Moreover, on LGR8 (RXFP2), the “effect on binding of Europium-INSL3” value is “less apparent”.
As for “AYAAFSV-Amide (AYAAFSV-NH2) [Peptide P59-S-Amide]”, in the experiment with LGR7 (RXFP1) [2], the “competition for binding” value is recorded as “no competition”. For the same substance, the “effect on binding of Europium-INSL3” value with LGR8 (RXFP2) is given as “less apparent”.
For the substance “GQKGQVGPPGAAVRRAYAAFSV-Amide (GQKGQVGPPGAAVRRAYAAFSV-NH2) [P59C13V-Amide]”, the “CRE activation pattern relative to Forskolin” value with LGR7 (RXFP1) [1] is given as “slight activation pattern”. The “competition for binding” value in the experiment with LGR7 (RXFP1) [2] was “no competition”. The “effect on binding of Europium-INSL3” value with LGR8 (RXFP2) is “less apparent”.
In the case of “H2 Relaxin: H2 Relaxin (ACS), positive control, known ligand of LGR7 (RXFP1) [reference compound]”, the “CRE activation pattern relative to Forskolin” value with LGR7 (RXFP1) [1] is “increased activation at higher concentrations”.
